Residue numbers refer to the chain shown, from its start. Several values for one entry are separate records, joined by “and”; a condition that tells them apart may be missing. Equal entries are not always repeated. Values belong to the binder of their own block, whether it stands above or below them.
What was measured:
[1] = target: T1, recombinant Fc-TrkB antigen (human) (human, UniProt Q16620 32-430, limits assumed); assay: BLI (ForteBio Octet), biotinylated Fc-TrkB on streptavidin sensors, IgG at 1E-8 M
T1 construct: Biotinylated for the ForteBio assays; also called Fc-hTrkB; human Fc-TrkB; not shown: Fc part
Experimental: (§1) The binding kinetics of IgGs and Fab fragments were analyzed using a ForteBio Octet biosensor. Recombinant Fc-TrkB antigen was biotinylated using the EZ-link biotinylation kit (Pierce) according to the manufacturer's methods. The antigen was then coupled to streptavidin-coated sensors (ForteBio). Fab binding was monitored in real time using bio-layer interferometry analysis and software provided by the manufacturer. Affinities were calculated from the determined association and dissociation constants.
IgGs with human V-segments were also prepared from transient transfections of CHO cells. IgG preparations were purified and further characterized by kinetic comparison with the reference IgG A10F18.2. Binding kinetics for two of the IgGs with human V-segments were analyzed using a ForteBio Octet system for real-time label-free monitoring of protein-protein interactions.

TrkA-Fc fusion protein [2] = target: T2, TrkA-Fc fusion protein (human, UniProt P04629-2 34-407, limits assumed); assay: ELISA on Trk-hFc fusion proteins, goat anti-human Fab-HRP detection [panel C]
T2 construct: not shown: Fc part
Experimental: (§2) FIG. 9A-D illustrate ELISA assays showing specific binding of NVP-LFD253, NVP-LFD254, NVP-LFC325 and NVP-LFC327 to human TrkB-Fc fusion protein but not to human […] or TrkC-Fc fusion proteins. Purified IgG at 2 μg/ml was evaluated for specificity by examining its interaction with three different Trk family members (TrkA, TrkB and TrkC). Secondary Ab are replicates that were blocked and treated with only the goat-anti-human Fab-HRP detection Ab.
(§3) IgG with human V-segments (e.g., NVP-LFD253, NVP-LFD254, NVP-LFC325, and NVP-LFC327) bind specifically to TrkB but not to TrkA or TrkC. Purified IgG antibodies at 2 μg/ml were evaluated for specificity by examining its interaction with three different Trk family members (TrkA, TrkB and TrkC). Secondary Ab are replicates that were blocked and treated with only the goat-anti-human Fab-HRP detection Ab. As shown in FIG. 9A-D, none of LFD253, LFD254, LFC325 or LFC327 bind to either of these related Trk family receptors.

[3] = target: T3, human TrkC-Fc fusion protein (human, UniProt Q16288 32-429, limits assumed); assay: as above
T3 construct: not shown: Fc part
Experimental: as §2, §3

[4] = target: TrkB on rat intestinal epithelial (RIE)-TrkB cells; assay: cell-based or functional assay
[5] = target: T1, recombinant Fc-TrkB antigen (human); assay: SPR (Biacore S51), Fc-hTrkB amine-coupled to CM-5 chip, IgG in flow, global 1:1 Langmuir fit
Experimental: Binding studies on the improved antibodies were performed by immobilizing Fc-hTrkB onto a Series S CM-5 Biacore sensor chip (certified) (Biacore #BR-1005-30). Covalent binding of the Fc-fusion protein was done with the ‘Amine Coupling Kit’ (Biacore #BR-1000-50). The Fc-Fusion protein was attached to the EDC-activated dextran surface at 5 μg/ml in 10 mM sodium acetate, pH 4.5 (Biacore #BR-1003-50) at a flow rate of 10 μL/min
A range of concentrations of improved antibodies were flowed over the Fc-TrkB captured chip in PBS plus 100 mM NaCl, 0.005% P20 (Biacore #BR-1000-54). The resulting sensorgrams were analyzed using the Biacore S51 Evaluation Software. Data from all concentrations was fitted globally to a 1:1 Langmuir model.
Although this antibody is bivalent, the binding was treated as a 1:1 event.

[6] = target: T1, recombinant Fc-TrkB antigen (human); assay: BLI (ForteBio Octet), biotinylated Fc-TrkB on streptavidin sensors, Fab at 1E-7 M
Experimental: as §1
(§4) Fabs with human V-segments were isolated from colony-lift binding assays and confirmed by antigen-binding ELISA. The Fab clones showing strong positive signals in antigen-binding ELISA were purified and further characterized by kinetic comparison with the reference Fab TR3-1. Binding kinetics were analyzed using a ForteBio Octet system for real-time label-free monitoring of protein-protein interactions.

[7] = target: T1, recombinant Fc-TrkB antigen (human); assay: as above; remark: listed apart in the source
Experimental: as §1, §4

TrkA-Fc fusion protein [8] = target: T2, TrkA-Fc fusion protein; assay: ELISA on Trk-hFc fusion proteins, goat anti-human Fab-HRP detection [panel B]
Experimental: as §2, §3

[9] = target: T3, human TrkC-Fc fusion protein; assay: as above
Experimental: as §2, §3

TrkA-Fc fusion protein [10] = target: T2, TrkA-Fc fusion protein; assay: ELISA on Trk-hFc fusion proteins, goat anti-human Fab-HRP detection [panel D]
Experimental: as §2, §3

[11] = target: T3, human TrkC-Fc fusion protein; assay: as above
Experimental: as §2, §3

TrkA-Fc fusion protein [12] = target: T2, TrkA-Fc fusion protein; assay: ELISA on Trk-hFc fusion proteins, goat anti-human Fab-HRP detection [panel A]
Experimental: as §2, §3

[13] = target: T3, human TrkC-Fc fusion protein; assay: as above
Experimental: as §2, §3

[14] = target: T1, recombinant Fc-TrkB antigen (human); assay: blocking ELISA on coated Fc-TrkB; blocked molecule: Fab TR151-1 at 50 nM, detected with anti-human kappa-HRP [upper panel]
[15] = target: T1, recombinant Fc-TrkB antigen (human); assay: blocking ELISA on coated Fc-TrkB; blocked molecule: Fab TR3-1 at 50 nM (two replicate series), detected with anti-human kappa-HRP [upper panel]

- Kd [1]: 0.0335 nM
- koff [1]: 1.52e-05 s⁻¹
- kon [1]: 453000 M⁻¹ s⁻¹
- binding result (TrkA-Fc fusion protein [2]): no binding (tested: 2 ug/ml)
- binding result [3]: no binding (tested: 2 ug/ml)
- EC50, anoikis assay on RIE-TrkB cells [4]: 41.8 ng/ml and 280 pM
- Kd [5]: 0.114 nM
- koff [5]: 4.85e-05 s⁻¹
- kon [5]: ~425000 M⁻¹ s⁻¹
B1: NVP-LFC325 (antibody, human IgG1, V domains shown)
VH: QVQLVQSGAEVKKPGASVKVSCKASGYTFTAYDMHWVRQAPGQGLEWMGWIDPNSGGTRYAQKFQGRVTMTRDTSISTAYMELSRLTSDDTAVYYCTGVTTWFAYWGQGTLVTVSS
VL: DIVMTQTPLSLPVTLGQPASISCRSSQSLLHSNGNTYLNWYQQTPGQPPRLLIYKISNRFSGVPDRFSGSGAGTDFTLKISRVEAEDVGVYYCMQGTHVPYTFGQGKLEIK
notes: IgG with human IgG1 constant region and human kappa constant region, from transiently transfected CHO cells; also called TR127 Vh & TR119 Vk

- Kd [6]: 32.3 nM
- koff [6]: 0.00439 s⁻¹
- kon [6]: 136000 M⁻¹ s⁻¹
- Kd [7]: 31.9 nM
- koff [7]: 0.00458 s⁻¹
- kon [7]: 144000 M⁻¹ s⁻¹
B2: Fab TR135-8 (Fab, V domains shown)
VH: B1 VH
VL: MDVVMTQSPLSLPVTLGQPASISCRSSQSLVHSNGNTYLNWYQQKPGQPPRLLIYKISNRFSGVPDRFSGSGAGTDFTLKISRVEAEDVGVYYCMQGTHEPYTFGQGKLEIK
notes: Fab with human V-segments, expressed in E. coli; detected with anti-human kappa

- binding result (TrkA-Fc fusion protein [8]): no binding (tested: 2 ug/ml)
- binding result [9]: no binding (tested: 2 ug/ml)
- EC50, anoikis assay on RIE-TrkB cells [4]: 24 ng/ml and 160 pM
- Kd [5]: 0.117 nM
- koff [5]: 1.94e-05 s⁻¹
- kon [5]: 166000 M⁻¹ s⁻¹
B3: NVP-LFD254 (antibody, human IgG1, V domains shown)
VH: B1 VH with N54R, G57D, R59S, A61K, S84H, T87R
VL: B1 VL
notes: IgG with human IgG1 constant region and human kappa constant region, from transiently transfected CHO cells; also called TR143 Vh & TR119 Vk

- Kd [1]: 0.0197 nM
- koff [1]: 7.9e-06 s⁻¹
- kon [1]: 401000 M⁻¹ s⁻¹
- binding result (TrkA-Fc fusion protein [10]): no binding (tested: 2 ug/ml)
- binding result [11]: no binding (tested: 2 ug/ml)
- EC50, anoikis assay on RIE-TrkB cells [4]: 26.9 ng/ml and 180 pM
- Kd [5]: 0.146 nM
- koff [5]: 5.76e-05 s⁻¹
- kon [5]: 393000 M⁻¹ s⁻¹
B4: NVP-LFC327 (antibody, human IgG1, V domains shown)
VH: B1 VH
VL: B1 VL with T7S, L30V, T44K, V99E
notes: IgG with human IgG1 constant region and human kappa constant region, from transiently transfected CHO cells; also called TR127 Vh & TR129 Vk

- Kd [6]: 15.1 nM
- koff [6]: 0.00317 s⁻¹
- kon [6]: 211000 M⁻¹ s⁻¹
- Kd [7]: 14.2 nM
- koff [7]: 0.00334 s⁻¹
- kon [7]: 235000 M⁻¹ s⁻¹
B5: Fab TR139-2 (Fab, V domains shown)
VH: B1 VH
VL: B2 VL with N40S, Y42L, K45R
notes: Fab with human V-segments, expressed in E. coli

- Kd [6]: 18.6 nM
- koff [6]: 0.00395 s⁻¹
- kon [6]: 213000 M⁻¹ s⁻¹
B6: Fab TR151-1 (Fab, V domains shown)
VH: B1 VH with T97A, T101S
VL: B2 VL with N40S, Y42L, K45R
notes: as for B5

- Kd [6]: 31.1 nM
- koff [6]: 0.00392 s⁻¹
- kon [6]: 126000 M⁻¹ s⁻¹
- Kd [7]: 29.7 nM
- koff [7]: 0.00366 s⁻¹
- kon [7]: 123000 M⁻¹ s⁻¹
B7: Fab TR144-1 (Fab, V domains shown)
VH: B1 VH with N54R, G57D, R59S, A61K, S84H, T87R
VL: B2 VL
notes: as for B5

- binding result (TrkA-Fc fusion protein [12]): no binding (tested: 2 ug/ml)
- binding result [13]: no binding (tested: 2 ug/ml)
- EC50, anoikis assay on RIE-TrkB cells [4]: 4.1 ng/ml and 28 pM
- Kd [5]: 0.165 nM
- koff [5]: 3.25e-05 s⁻¹
- kon [5]: 197000 M⁻¹ s⁻¹
B8: NVP-LFD253 (antibody, human IgG1, V domains shown)
VH: B1 VH
VL: B1 VL with L30V, N39S, Y41L, T44R, V99E
notes: IgG with human IgG1 constant region and human kappa constant region, from transiently transfected CHO cells; also called TR127 Vh & TR137 Vk

- Kd [7]: 35.6 nM
- koff [7]: 0.00422 s⁻¹
- kon [7]: 118000 M⁻¹ s⁻¹
B9: Fab TR134-4 (Fab, V domains shown)
VH: B1 VH
VL: B2 VL with V31L, K45T
notes: as for B5

- Kd [1]: 0.0379 nM and 0.0477 nM
- koff [1]: 1.44e-05 s⁻¹ and 1.89e-05 s⁻¹
- kon [1]: 379000 M⁻¹ s⁻¹ and 396000 M⁻¹ s⁻¹
- IC50 (read off the curve) [14]: ~5 nM
- IC50 (read off the curve) [15]: ~6 nM
B10: A10F18.2 IgG (antibody, V domains shown)
VH: QVQLQQSGAELVRPGASVTLSCKASGYTFTDYEMHWVKQTPVHGLEWIGTIDPETAGTAYNQKFKGKAILTAGKSSSTAYMELRSLTSEDSAVYYCTGVTTWFAYWGQGTLVTVSA
VL: DVVMTQTPLSLPVSLGDQASISCRSSQSLVHSNGNTYLHWYLQKPGQSPNLLIYKVSNRFSGVPDRFSGSGSGTDFTLKISRVEAEDLGVYFCSQGTHVPYTFGGGTKLEIKR
